Test results reported in US20240360228A1 (BIOLEGEND, published 2024).
Residue numbers refer to the chain shown, from its start.

B1: AB14 (antibody, V domains shown)
VH: EVQLVESGGGLVQPKGSLKLSCAASGFTFNTYAMNWVRQAPGKGLEWVARIRSKSNNYATYYVDSVKDRFTISRDDSQSMLYLQINNLKTEDTAMYYCVRGRELGPYSAMDYWGQGTSVTVSS
VL: DIVMTQAAPSVPVTPGESVSISCRSSKSLLHSNGNTYLYWFLQRPGQSPQLLIYRMSNLASGVPDRFSGSGSGTAFTLRISRVEAEDVGLYYCMQHLEYPFTFGGGTKLEIK
notes: Hybridoma monoclonal; also called antibody 14; clone 14
B2: AB10 (antibody, V domains shown)
VH: EVQLVETGGGLVQPKGSLKLSCAVSGFTFKTNAMNWVRQAPGKGLEWVARIRSKSNKYATYYADSVKDRFTISRDDSQSMLYLQMNNLKTEDTAMYYCVRGSEMGYYYAMDYWGQGTSVTVSS
VL: B1 VL with L90V
notes: Hybridoma monoclonal; also called antibody 10; clone 10
B3: AB12 (antibody, V domains shown)
VH: B1 VH with T28A, V48I, I51L, N57F, V63A, I85M, M95V, Y107S, S108Y
VL: B1 VL with L90V, F101Y
notes: Hybridoma monoclonal; also called antibody 12; clone 12
B4: AB1 (antibody, V domains shown)
VH: QVQLKESGPGLVKPSETLSLTCTVSGFSLTSYHISWVRQPPGKGLEWMGVIWGDGSKTYNSALKSRLSISRDTSKSQVFLKMRSLKTEDTATYYCARGGDSGFAYWGQGTLVTVSS
VL: DIQMTQSPASLSASLEEIVTITCQASQDIGNWLSWYQQKPGKSPQLLIYGTTNLADGVPSRFSGSRSGTQYSLKISRLQVEDIGIYYCLQAYSVPLTFGSGTKLEIK
notes: Hybridoma monoclonal (mice or rats immunised); Used purified and PE-conjugated; also called antibody 1; clone 1
B5: AB3 (antibody, V domains shown)
VH: B4 VH with S56K, K57T, R83N
VL: B4 VL
notes: Hybridoma monoclonal; also called antibody 3; clone 3

The binders below were run against T1, human chemokine (C-C motif) receptor 8 (CCR8) (human, UniProt P51685 1-355) (assay: cell-based or functional assay).
T1 sequence (P51685 whole entry): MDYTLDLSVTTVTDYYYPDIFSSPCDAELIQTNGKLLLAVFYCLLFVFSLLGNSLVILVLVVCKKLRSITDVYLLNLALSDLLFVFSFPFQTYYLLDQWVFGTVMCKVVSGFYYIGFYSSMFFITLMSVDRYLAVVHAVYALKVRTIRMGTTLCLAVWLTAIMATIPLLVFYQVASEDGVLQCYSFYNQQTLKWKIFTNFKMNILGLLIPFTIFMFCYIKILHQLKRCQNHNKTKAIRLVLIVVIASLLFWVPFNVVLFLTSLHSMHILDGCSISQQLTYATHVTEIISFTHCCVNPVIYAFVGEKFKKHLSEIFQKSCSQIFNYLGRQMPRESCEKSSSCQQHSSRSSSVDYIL
In the case of B1, the “% hCCR8-Ba/F3 - THP-1 complexes” value is reported as 0.97%. B2 was tested, and the “% hCCR8-Ba/F3 - THP-1 complexes” value was 0.47%. With B3 the “% hCCR8-Ba/F3 - THP-1 complexes” value was 1.56%. For B4, the “% hCCR8-Ba/F3 - THP-1 complexes” value was 0.6%. In the case of B5, the “% hCCR8-Ba/F3 - THP-1 complexes” value is reported as 0.74%.

What follows are binders tested against T1, human chemokine (C-C motif) receptor 8 … (assay: flow cytometry blocking, PBMC CCR8+ CD4+ cells; competitor PE-AB1 (its MFI is read)).
Experimental: (§1) For blocking studies, 100 μL of the cell suspension were incubated with 10 μg purified isotype control, AB1, AB2, AB3, AB4, AB5, AB8, AB9, AB10, AB11, AB12, AB13, AB14, AB15, and Commercial ABI antibodies, or isotype control, as blocking agents.
(§2) After incubation with the blocking agent, the cells were incubated with 0.25 μg of the indicated PE-conjugated antibody plus anti-human CD4 APC or anti-human CD3 for another 15 minutes in the dark and then washed 2 times with Cell Staining Buffer, and acquired in a FACSCanto II flow cytometer (BD Biosciences); the data was analyzed using FCS Express (De Novo Software); MFI correspond to the CCR8+ CD4+ lymphocytes or CCR8+ CD3+ lymphocytes.
(§3) Percentage original MFI was calculated by dividing the MFI of samples blocked with AB1, AB2, AB3, AB4, AB5, AB6, AB7, AB8, AB9, AB10, AB11, AB12, AB13, AB14, AB15, and Commercial ABI antibodies, by the MFI of samples blocked with the corresponding isotype control. This value was subtracted from 100 to get a blocking percentage. The formula is shown below: […]
In the case of B1, the “% Blocking” value is reported as -39.8% and the MFI is reported as 916. For B2, the “% Blocking” value was -61.8% and the MFI was 1060. For B3, the “% Blocking” value was -45.4% and the MFI was 953. With B4 the “% Blocking” value was 28.8% and the MFI was 467. B5 was tested, and the “% Blocking” value was 36.5% and the MFI was 416.

What follows are binders tested against T1, human chemokine (C-C motif) receptor 8 … (assay: flow cytometry blocking, PBMC CCR8+ CD4+ cells; competitor PE-AB2 (its MFI is read)).
Experimental: as §1, §2, §3
With B1 the “% Blocking” value was -32.6% and the MFI was 888. In the case of B2, the “% Blocking” value is reported as -45.2% and the MFI is reported as 972. B3 was tested, and the “% Blocking” value was -46.8% and the MFI was 983. In the case of B4, the “% Blocking” value is reported as 46.8% and the MFI is reported as 356. For B5, the “% Blocking” value was 37% and the MFI was 422.

Each binder was assayed against T1, human chemokine (C-C motif) receptor 8 … (assay: flow cytometry blocking, PBMC CCR8+ CD4+ cells; competitor PE-AB3 (its MFI is read)).
Experimental: as §1, §2, §3
In the case of B1, the “% Blocking” value is reported as -23.3% and the MFI is reported as 855. B2 was tested, and the “% Blocking” value was -38.4% and the MFI was 961. For B3, the “% Blocking” value was -27.5% and the MFI was 885. B4 was tested, and the “% Blocking” value was 48.3% and the MFI was 359. With B5 the “% Blocking” value was 100% and the MFI was 0.

These binders were tested against T1, human chemokine (C-C motif) receptor 8 … (assay: flow cytometry blocking, PBMC CCR8+ CD4+ cells; competitor PE-AB4 (its MFI is read)).
Experimental: as §1, §2, §3
With B1 the “% Blocking” value was -39.4% and the MFI was 951. In the case of B2, the “% Blocking” value is reported as -41.9% and the MFI is reported as 969. With B3 the “% Blocking” value was -54.7% and the MFI was 1060. For B4, the “% Blocking” value was 100% and the MFI was 0. In the case of B5, the “% Blocking” value is reported as 34.6% and the MFI is reported as 446.

These binders were tested against T1, human chemokine (C-C motif) receptor 8 … (assay: flow cytometry blocking, PBMC CCR8+ CD4+ cells; competitor PE-AB5 (its MFI is read)).
Experimental: as §1, §2, §3
With B1 the “% Blocking” value was -29.2% and the MFI was 969. B2 was tested, and the “% Blocking” value was -32.8% and the MFI was 995. With B3 the “% Blocking” value was -36.2% and the MFI was 1020. With B4 the “% Blocking” value was 25.7% and the MFI was 557. For B5, the “% Blocking” value was 38.8% and the MFI was 459.

Each binder was assayed against T1, human chemokine (C-C motif) receptor 8 … (assay: flow cytometry blocking, PBMC CCR8+ CD4+ cells; competitor PE-AB6 (its MFI is read)).
Experimental: as §1, §2, §3
B1 was tested, and the “% Blocking” value was -23.3% and the MFI was 966. For B2, the “% Blocking” value was -26.3% and the MFI was 990. With B3 the “% Blocking” value was -24.1% and the MFI was 973. In the case of B4, the “% Blocking” value is reported as 40.2% and the MFI is reported as 469. With B5 the “% Blocking” value was 45.5% and the MFI was 427.

Each binder was assayed against T1, human chemokine (C-C motif) receptor 8 … (assay: flow cytometry blocking, PBMC CCR8+ CD4+ cells; competitor PE-AB10 (its MFI is read)).
Experimental: as §1, §2, §3
For B1, the “% Blocking” value was 28.6% and the MFI was 720. For B2, the “% Blocking” value was -32.5% and the MFI was 1340. In the case of B3, the “% Blocking” value is reported as 5.71% and the MFI is reported as 950. With B4 the “% Blocking” value was 0.2% and the MFI was 1010. In the case of B5, the “% Blocking” value is reported as -1.1% and the MFI is reported as 1020.

What follows are binders tested against T1, human chemokine (C-C motif) receptor 8 … (assay: flow cytometry blocking, PBMC CCR8+ CD4+ cells; competitor PE-AB11 (its MFI is read)).
Experimental: as §1, §2, §3
For B1, the “% Blocking” value was 44.4% and the MFI was 501. With B2 the “% Blocking” value was 39.5% and the MFI was 545. For B3, the “% Blocking” value was 23.6% and the MFI was 689. With B4 the “% Blocking” value was -4.76% and the MFI was 944. In the case of B5, the “% Blocking” value is reported as -4.37% and the MFI is reported as 941.

The binders below were run against T1, human chemokine (C-C motif) receptor 8 … (assay: flow cytometry blocking, PBMC CCR8+ CD4+ cells; competitor PE-AB12 (its MFI is read)).
Experimental: as §1, §2, §3
B1 was tested, and the “% Blocking” value was 43.3% and the MFI was 553. B2 was tested, and the “% Blocking” value was -21.6% and the MFI was 1190. B3 was tested, and the “% Blocking” value was -5.38% and the MFI was 1030. With B4 the “% Blocking” value was -6.83% and the MFI was 1040. B5 was tested, and the “% Blocking” value was -7.35% and the MFI was 1050.

These binders were tested against T1, human chemokine (C-C motif) receptor 8 … (assay: flow cytometry blocking, PBMC CCR8+ CD4+ cells; competitor PE-AB13 (its MFI is read)).
Experimental: as §1, §2, §3
For B1, the “% Blocking” value was 38.4% and the MFI was 577. For B2, the “% Blocking” value was 2.16% and the MFI was 916. With B3 the “% Blocking” value was 14.2% and the MFI was 803. In the case of B4, the “% Blocking” value is reported as 1.62% and the MFI is reported as 921. For B5, the “% Blocking” value was 7.12% and the MFI was 870.

Each binder was assayed against T1, human chemokine (C-C motif) receptor 8 … (assay: flow cytometry blocking, PBMC CCR8+ CD4+ cells; competitor PE-AB14 (its MFI is read)).
Experimental: as §1, §2, §3
B1 was tested, and the “% Blocking” value was -237% and the MFI was 2980. In the case of B2, the “% Blocking” value is reported as 27.5% and the MFI is reported as 642. B3 was tested, and the “% Blocking” value was 100% and the MFI was 0. In the case of B4, the “% Blocking” value is reported as 6.44% and the MFI is reported as 829. With B5 the “% Blocking” value was -2.68% and the MFI was 910.

These binders were tested against T1, human chemokine (C-C motif) receptor 8 … (assay: flow cytometry blocking, PBMC CCR8+ CD4+ cells; competitor PE-AB15 (its MFI is read)).
Experimental: as §1, §2, §3
For B1, the “% Blocking” value was -218% and the MFI was 2520. With B2 the “% Blocking” value was -0.06% and the MFI was 793. For B3, the “% Blocking” value was 7.39% and the MFI was 734. With B4 the “% Blocking” value was 1.66% and the MFI was 780. In the case of B5, the “% Blocking” value is reported as -10.2% and the MFI is reported as 874.

What follows are binders tested against T1, human chemokine (C-C motif) receptor 8 … (assay: flow cytometry blocking, PBMC CCR8+ CD4+ cells; competitor PE-ABII (its MFI is read)).
Experimental: as §1, §2, §3
In the case of B1, the “% Blocking” value is reported as 9.26% and the MFI is reported as 1000. In the case of B2, the “% Blocking” value is reported as 15% and the MFI is reported as 942. In the case of B3, the “% Blocking” value is reported as 22.9% and the MFI is reported as 854. With B4 the “% Blocking” value was 2.87% and the MFI was 1080. With B5 the “% Blocking” value was 3.05% and the MFI was 1070.
